# According to patent US5861477A (priority 1996, dated 1999):
# Several values for one entry are separate records, joined by “and”; a condition that tells them apart may be missing. Equal entries are not always repeated.
# B1: RNase: bovine ribonuclease A (protein, UniProt P61823 27-150, looked up)
# Ribonuclease pancreatic: KETAAAKFERQHMDSSTSAASSSNYCNQMMKSRNLTKDRCKPVNTFVHESLADVQAVCSQKNVACKNGQTNCYQSYSTMSITDCRETGSSKYPNCAYKTTQANKHIIVACEGNPYVPVHFDASV
# Legend:
# [1] = test system: M. lysodeikticus cell wall; conditions: 0.125M NaCl; Neville et al. 1972; cited from earlier work
# [2] = test system: M. lysodeikticus cell wall; experiment: Lysozyme activity: hydrolysis of M. lysodeikticus; format: biochemical, Micrococcus lysodeikticus
# Method: Measurement of Lysozyme Activity. […] The decrease in turbidity was measured at 450 nm on a recording spectrophotometer. […] Kinetic constants were determined from the linear plots of 1/initial velocity (in change of absorbance/min) against 1/substrate concentration in mg/ml as described (Lineweaver, H. and Burk, D. (1934) J. Amer. Chem. Soc. 56, 658-666). […] Applicant always dedicated a separate spectrophotometer cuvette for this positive control. […] The decrease in turbidity was monitored at room temperature at 450 nm.
# [3] = test system: yeast RNA; experiment: Ribonuclease activity: hydrolysis of yeast RNA; format: biochemical
# Method: Measurement of Ribonuclease Activity. The catalytic activity of RNase and RnPepz were determined by their hydrolytic effects on yeast RNA (Kunitz, M. (1946) J. Biol. Chem. 164, 563-569; Gutte, B. and […]. Biol. Chem. 246, 1922-1941). […] The decrease in absorbance at 300 nm with time was measured on the recording spectrophotometer. Reaction mixtures that contained no catalyst as well as mixtures containing LyPepz or other cyclic peptides unrelated to RNase were used as controls. The kinetic parameters of the hydrolytic activities were determined by Lineweaver-Burk plots (Lineweaver, H. and Burk, D. (1934) J. Amer. Chem. Soc. 56, 658-666) of 1/absorbance change per minute against 1/substrate concentration in mg per ml. […] The change in absorbance with the test samples (RnPepz) was correlated for the small change obtained with the same amount of unrelated peptides (negative controls) acting on the corresponding concentration of substrate. […] The effects of disulfide-bond reduction on RNase and RnPepz activities were determined by premixing each catalyst (RNase, 1.095×10^-4 μmole; […] The reactions were monitored by the decrease in absorbance at 300 nm as above. The effects of inhibitors (denatured DNA or Ag^+) on activities were also done by pre-mixing RNase or RnPepz with denatured DNA (250 μg) or with 10 molar excess of AgNO3 prior to addition to RNA, using the same amounts of catalyst and substrate described for DTT. Denaturation of DNA was done by boiling a solution in water (1 mg/ml) for 10 min, then chilling immediately in ice.
# [4] = test system: yeast RNA; conditions: Gutte et al. 1971; Edelhock and Coleman 1956; cited from earlier work
# [5] = 10 molar excess, pre-mixed 3 hr
# [6] = hydrolysis of M. lysodeikticus, 25° C., 0.125M NaCl
# [7] = hydrolysis of yeast RNA, 0.1M sodium acetate, pH 5.0, 25° C.
Molecule,Km reported value [1],"activity on M. lysodeikticus in presence of histamine [2, 5]","activity on M. lysodeikticus in presence of imidazole [2, 5]","activity on M. lysodeikticus in presence of tryptamine [2, 5]","Km [2, 6]","kcat [2, 6]",hydrolytic activity on yeast RNA ([3]; in words),activity on yeast RNA in presence of denatured DNA ([3]; 250 μg denatured DNA),activity on yeast RNA in presence of Ag^+ (heavy metals) ([3]; 10 molar excess of AgNO3),hydrolytic activity on yeast RNA at 10° C. ([3]; 10° C.),"Km [3, 7]","kcat [3, 7]",Km reported values [4]
LYZ: hen egg lysozyme,129 mg/L,completely inhibited,completely inhibited,completely inhibited,120.6 ± 4.0 mg/L,9.26 ± 0.12 OD units/μmole/sec,no effect,–,–,–,–,–,–
B1,–,–,–,–,–,–,–,completely inhibited,completely inhibited,neither RnPepz nor RNase had any measurable hydrolytic activity,1254 ± 460 mg/L,14.05 ± 6.85 OD units/μmole/sec,1.20 mg/mL and 1.25 mg/mL
